Laboratory results: the supplement of paper PMC6379048

Legend:
Assay in all cases: Kd (EC50 corrected by depletion factor)
[1] = target: PABPC1 (UniProt P11940)
In short: (§1)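 Free RNA oligos (0 nM to 30 μM) competed for 1 h at 4°C in HEK293-FT lysate (2.5 mg protein/well) before a 30 min, 4°C pulldown with the same oligos on NHS-Sepharose beads. Bound proteins were quantified by label-free LC-MS/MS and normalised to the control. Kd was found by multiplying EC50, from a four-parameter log-logistic fit, by a protein-dependent depletion factor.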

[2] = target: T1, SRSF3 (UniProt P84103)
T1 sequence: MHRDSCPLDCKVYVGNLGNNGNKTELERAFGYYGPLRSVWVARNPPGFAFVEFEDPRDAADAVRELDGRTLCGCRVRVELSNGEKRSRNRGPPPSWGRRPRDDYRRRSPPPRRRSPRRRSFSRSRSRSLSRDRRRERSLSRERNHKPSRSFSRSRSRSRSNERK
In short: as §1

[3] = target: T2, CSTF2 (UniProt P33240)
T2 sequence: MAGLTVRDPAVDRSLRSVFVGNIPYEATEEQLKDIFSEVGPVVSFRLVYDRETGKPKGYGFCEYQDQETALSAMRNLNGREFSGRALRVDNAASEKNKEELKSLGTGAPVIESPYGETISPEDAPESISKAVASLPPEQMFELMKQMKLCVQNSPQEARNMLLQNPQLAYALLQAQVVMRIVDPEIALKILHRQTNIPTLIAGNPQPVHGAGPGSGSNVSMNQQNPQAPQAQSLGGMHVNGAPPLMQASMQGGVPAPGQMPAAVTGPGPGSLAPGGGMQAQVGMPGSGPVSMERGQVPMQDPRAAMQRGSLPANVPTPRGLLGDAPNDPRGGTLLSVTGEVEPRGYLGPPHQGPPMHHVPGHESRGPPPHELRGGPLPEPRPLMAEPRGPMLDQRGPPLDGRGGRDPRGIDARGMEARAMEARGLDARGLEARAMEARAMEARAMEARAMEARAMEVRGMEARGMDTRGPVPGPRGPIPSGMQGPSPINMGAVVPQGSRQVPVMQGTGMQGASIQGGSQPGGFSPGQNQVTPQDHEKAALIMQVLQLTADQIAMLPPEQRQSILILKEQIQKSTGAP
In short: as §1

[4] = target: T3, DAZAP1 (UniProt Q96EP5)
T3 sequence: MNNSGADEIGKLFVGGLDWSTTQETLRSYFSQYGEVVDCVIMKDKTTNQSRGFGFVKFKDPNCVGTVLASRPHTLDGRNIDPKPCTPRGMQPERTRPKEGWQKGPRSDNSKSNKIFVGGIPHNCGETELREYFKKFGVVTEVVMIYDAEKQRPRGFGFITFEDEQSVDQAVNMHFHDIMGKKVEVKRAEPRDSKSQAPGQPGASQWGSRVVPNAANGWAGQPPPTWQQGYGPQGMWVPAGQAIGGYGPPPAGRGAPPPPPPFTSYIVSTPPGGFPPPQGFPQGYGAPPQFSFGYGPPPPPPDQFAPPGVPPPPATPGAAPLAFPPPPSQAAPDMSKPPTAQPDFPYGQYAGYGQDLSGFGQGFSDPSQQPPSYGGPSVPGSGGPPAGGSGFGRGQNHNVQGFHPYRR
In short: as §1

[5] = target: ELAVL1 (UniProt Q15717)
In short: as §1

[6] = target: ELAVL2 (UniProt Q12926)
In short: as §1

[7] = target: T4, LSM7 (UniProt Q9UK45)
T4 sequence: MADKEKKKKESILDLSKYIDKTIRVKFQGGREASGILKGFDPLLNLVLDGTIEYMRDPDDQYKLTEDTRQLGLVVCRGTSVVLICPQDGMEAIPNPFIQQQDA
In short: as §1

[8] = target: T5, RBMS2 (UniProt Q15434)
T5 sequence: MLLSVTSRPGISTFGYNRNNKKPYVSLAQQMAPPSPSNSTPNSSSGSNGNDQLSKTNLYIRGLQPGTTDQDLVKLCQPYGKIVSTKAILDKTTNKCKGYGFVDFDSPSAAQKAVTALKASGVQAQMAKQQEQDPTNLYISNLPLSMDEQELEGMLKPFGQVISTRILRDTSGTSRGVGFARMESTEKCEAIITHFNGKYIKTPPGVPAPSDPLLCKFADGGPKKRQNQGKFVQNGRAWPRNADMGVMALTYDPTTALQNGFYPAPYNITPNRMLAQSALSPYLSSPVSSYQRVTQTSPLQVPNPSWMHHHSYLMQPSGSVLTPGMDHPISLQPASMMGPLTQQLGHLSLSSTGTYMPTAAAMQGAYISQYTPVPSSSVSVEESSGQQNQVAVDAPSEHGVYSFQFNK
In short: as §1

Sequence of ELAVL1 (Q15717 whole entry): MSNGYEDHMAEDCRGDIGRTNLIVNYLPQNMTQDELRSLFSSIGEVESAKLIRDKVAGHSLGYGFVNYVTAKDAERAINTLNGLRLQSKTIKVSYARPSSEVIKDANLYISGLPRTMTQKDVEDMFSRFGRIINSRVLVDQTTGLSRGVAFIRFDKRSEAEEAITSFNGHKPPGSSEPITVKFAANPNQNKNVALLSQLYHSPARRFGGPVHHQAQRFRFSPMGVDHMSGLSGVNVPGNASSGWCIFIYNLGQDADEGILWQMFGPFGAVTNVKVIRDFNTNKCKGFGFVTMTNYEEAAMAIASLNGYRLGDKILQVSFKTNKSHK
Sequence of PABPC1 (P11940 whole entry): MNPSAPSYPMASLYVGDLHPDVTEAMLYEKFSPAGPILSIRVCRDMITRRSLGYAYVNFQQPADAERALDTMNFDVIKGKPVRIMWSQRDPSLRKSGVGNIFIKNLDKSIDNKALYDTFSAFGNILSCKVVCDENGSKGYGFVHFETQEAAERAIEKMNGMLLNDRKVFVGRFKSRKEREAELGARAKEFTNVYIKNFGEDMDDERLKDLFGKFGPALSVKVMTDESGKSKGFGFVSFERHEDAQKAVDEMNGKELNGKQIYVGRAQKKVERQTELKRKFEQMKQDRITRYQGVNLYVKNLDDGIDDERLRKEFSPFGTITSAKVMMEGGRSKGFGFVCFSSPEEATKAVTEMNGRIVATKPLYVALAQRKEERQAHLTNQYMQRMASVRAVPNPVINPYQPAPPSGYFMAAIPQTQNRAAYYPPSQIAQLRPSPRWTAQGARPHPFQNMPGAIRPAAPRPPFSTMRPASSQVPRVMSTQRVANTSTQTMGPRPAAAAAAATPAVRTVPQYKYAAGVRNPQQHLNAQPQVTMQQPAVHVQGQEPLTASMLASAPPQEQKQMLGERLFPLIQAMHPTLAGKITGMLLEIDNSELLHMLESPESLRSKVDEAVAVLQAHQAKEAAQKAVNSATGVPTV
Sequence of ELAVL2 (Q12926 whole entry): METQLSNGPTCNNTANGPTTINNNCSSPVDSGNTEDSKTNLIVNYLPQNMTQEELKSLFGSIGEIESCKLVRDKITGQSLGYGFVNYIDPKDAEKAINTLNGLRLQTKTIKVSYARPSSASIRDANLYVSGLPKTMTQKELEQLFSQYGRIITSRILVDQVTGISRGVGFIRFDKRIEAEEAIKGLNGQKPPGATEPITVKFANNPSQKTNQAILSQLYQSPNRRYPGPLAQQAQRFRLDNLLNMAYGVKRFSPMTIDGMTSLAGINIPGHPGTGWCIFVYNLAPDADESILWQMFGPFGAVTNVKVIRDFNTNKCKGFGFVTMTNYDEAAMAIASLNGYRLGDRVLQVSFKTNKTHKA

Sequence	Kd [1] [nM]	Kd [2] [nM]	Kd [3] [nM]	Kd [4] [nM]	Kd [5] [nM]	Kd [6] [nM]	Kd [7] [nM]	Kd [8] [nM]
CUGUCCU	95.9	790	–	–	–	–	–	–
AAUAAA	7490	281	7.84	113	440	8830	142	158
UAUUUAU	–	–	286	286	920	3670	270	274
